Measured values taken from US20240124865.

T1: FRETS-VWF73 substrate (VWF fragment comprising VWFA2 domain residues 1596 to 1668)
T1 chain: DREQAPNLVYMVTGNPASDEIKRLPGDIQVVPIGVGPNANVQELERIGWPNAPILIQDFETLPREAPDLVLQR

B1: ADAMTS13 A1144I variant (Exemplified A1144I variant) (protein)
chain: AAGGILHLELLVAVGPDVFQAHQEDTERYVLTNLNIGAELLRDPSLGAQFRVHLVKMVILTEPEGAPNITANLTSSLLSVCGWSQTINPEDDTDPGHADLVLYITRFDLELPDGNRQVRGVTQLGGACSPTWSCLITEDTGFDLGVTIAHEIGHSFGLEHDGAPGSGCGPSGHVMASDGAAPRAGLAWSPCSRRQLLSLLSAGRARCVWDPPRPQPGSAGHPPDAQPGLYYSANEQCRVAFGPKAVACTFAREHLDMCQALSCHTDPLDQSSCSRLLVPLLDGTECGVEKWCSKGRCRSLVELTPIAAVHGRWSSWGPRSPCSRSCGGGVVTRRRQCNNPRPAFGGRACVGADLQAEMCNTQACEKTQLEFMSQQCARTDGQPLRSSPGGASFYHWGAAVPHSQGDALCRHMCRAIGESFIMKRGDSFLDGTRCMPSGPREDGTLSLCVSGSCRTFGCDGRMDSQQVWDRCQVCGGDNSTCSPRKGSFTAGRAREYVTFLTVTPNLTSVYIANHRPLFTHLAVRIGGRYVVAGKMSISPNTTYPSLLEDGRVEYRVALTEDRLPRLEEIRIWGPLQEDADIQVYRRYGEEYGNLTRPDITFTYFQPKPRQAWVWAAVRGPCSVSCGAGLRWVNYSCLDQARKELVETVQCQGSQQPPAWPEACVLEPCPPYWAVGDFGPCSASCGGGLRERPVRCVEAQGSLLKTLPPARCRAGAQQPAVALETCNPQPCPARWEVSEPSSCTSAGGAGLALENETCVPGADGLEAPVTEGPGSVDEKLPAPEPCVGMSCPPGWGHLDATSAGEKAPSPWGSIRTGAQAAHVWTPAAGSCSVSCGRGLMELRFLCMDSALRVPVQEELCGLASKPGSRREVCQAVPCPARWQYKLAACSVSCGRGVVRRILYCARAHGEDDGEEILLDTQCQGLPRPEPQEACSLEPCPPRWKVMSLGPCSASCGLGTARRSVACVQLDQGQDVEVDEAACAALVRPEASVPCLIADCTYRWHVGTWMECSVSCGDGIQRRRDTCLGPQAQAPVPADFCQHLPKPVTVRGCWAGPCVGQGTPSLVPHEEIAAPGRTTATPAGASLEWSQARGLLFSPAPQPRRLLPGPQENSVQSSACGRQHLEPTGTIDMRGPGQADCAVAIGRPLGEVVTLRVLESSLNCSAGDMLLLWGRLTWRKMCRKLLDMTFSSKTNTLVVRQRCGRPGGGVLLRYGSQLAPETFYRECDMQLFGPWGEIVSPSLSPATSNAGGCRLFINVAPHARIAIHALATNMGAGTEGANASYILIRDTHSLRTTAFHGQQVLYWESESSQAEMEFSEGFLKAQASLRGQYWTLQSWVPEMQDPQSWKGKEGTSRGPFEQKLISEEDLNMHTGHHHHHH
B2: ADAMTS13 P1180I variant (Exemplified P1180I variant) (protein)
chain: AAGGILHLELLVAVGPDVFQAHQEDTERYVLTNLNIGAELLRDPSLGAQFRVHLVKMVILTEPEGAPNITANLTSSLLSVCGWSQTINPEDDTDPGHADLVLYITRFDLELPDGNRQVRGVTQLGGACSPTWSCLITEDTGFDLGVTIAHEIGHSFGLEHDGAPGSGCGPSGHVMASDGAAPRAGLAWSPCSRRQLLSLLSAGRARCVWDPPRPQPGSAGHPPDAQPGLYYSANEQCRVAFGPKAVACTFAREHLDMCQALSCHTDPLDQSSCSRLLVPLLDGTECGVEKWCSKGRCRSLVELTPIAAVHGRWSSWGPRSPCSRSCGGGVVTRRRQCNNPRPAFGGRACVGADLQAEMCNTQACEKTQLEFMSQQCARTDGQPLRSSPGGASFYHWGAAVPHSQGDALCRHMCRAIGESFIMKRGDSFLDGTRCMPSGPREDGTLSLCVSGSCRTFGCDGRMDSQQVWDRCQVCGGDNSTCSPRKGSFTAGRAREYVTFLTVTPNLTSVYIANHRPLFTHLAVRIGGRYVVAGKMSISPNTTYPSLLEDGRVEYRVALTEDRLPRLEEIRIWGPLQEDADIQVYRRYGEEYGNLTRPDITFTYFQPKPRQAWVWAAVRGPCSVSCGAGLRWVNYSCLDQARKELVETVQCQGSQQPPAWPEACVLEPCPPYWAVGDFGPCSASCGGGLRERPVRCVEAQGSLLKTLPPARCRAGAQQPAVALETCNPQPCPARWEVSEPSSCTSAGGAGLALENETCVPGADGLEAPVTEGPGSVDEKLPAPEPCVGMSCPPGWGHLDATSAGEKAPSPWGSIRTGAQAAHVWTPAAGSCSVSCGRGLMELRFLCMDSALRVPVQEELCGLASKPGSRREVCQAVPCPARWQYKLAACSVSCGRGVVRRILYCARAHGEDDGEEILLDTQCQGLPRPEPQEACSLEPCPPRWKVMSLGPCSASCGLGTARRSVACVQLDQGQDVEVDEAACAALVRPEASVPCLIADCTYRWHVGTWMECSVSCGDGIQRRRDTCLGPQAQAPVPADFCQHLPKPVTVRGCWAGPCVGQGTPSLVPHEEAAAPGRTTATPAGASLEWSQARGLLFSPAPQPRRLLIGPQENSVQSSACGRQHLEPTGTIDMRGPGQADCAVAIGRPLGEVVTLRVLESSLNCSAGDMLLLWGRLTWRKMCRKLLDMTFSSKTNTLVVRQRCGRPGGGVLLRYGSQLAPETFYRECDMQLFGPWGEIVSPSLSPATSNAGGCRLFINVAPHARIAIHALATNMGAGTEGANASYILIRDTHSLRTTAFHGQQVLYWESESSQAEMEFSEGFLKAQASLRGQYWTLQSWVPEMQDPQSWKGKEGTSRGPFEQKLISEEDLNMHTGHHHHHH
B3: ADAMTS13 P1180K variant (Exemplified P1180K variant) (protein)
chain: AAGGILHLELLVAVGPDVFQAHQEDTERYVLTNLNIGAELLRDPSLGAQFRVHLVKMVILTEPEGAPNITANLTSSLLSVCGWSQTINPEDDTDPGHADLVLYITRFDLELPDGNRQVRGVTQLGGACSPTWSCLITEDTGFDLGVTIAHEIGHSFGLEHDGAPGSGCGPSGHVMASDGAAPRAGLAWSPCSRRQLLSLLSAGRARCVWDPPRPQPGSAGHPPDAQPGLYYSANEQCRVAFGPKAVACTFAREHLDMCQALSCHTDPLDQSSCSRLLVPLLDGTECGVEKWCSKGRCRSLVELTPIAAVHGRWSSWGPRSPCSRSCGGGVVTRRRQCNNPRPAFGGRACVGADLQAEMCNTQACEKTQLEFMSQQCARTDGQPLRSSPGGASFYHWGAAVPHSQGDALCRHMCRAIGESFIMKRGDSFLDGTRCMPSGPREDGTLSLCVSGSCRTFGCDGRMDSQQVWDRCQVCGGDNSTCSPRKGSFTAGRAREYVTFLTVTPNLTSVYIANHRPLFTHLAVRIGGRYVVAGKMSISPNTTYPSLLEDGRVEYRVALTEDRLPRLEEIRIWGPLQEDADIQVYRRYGEEYGNLTRPDITFTYFQPKPRQAWVWAAVRGPCSVSCGAGLRWVNYSCLDQARKELVETVQCQGSQQPPAWPEACVLEPCPPYWAVGDFGPCSASCGGGLRERPVRCVEAQGSLLKTLPPARCRAGAQQPAVALETCNPQPCPARWEVSEPSSCTSAGGAGLALENETCVPGADGLEAPVTEGPGSVDEKLPAPEPCVGMSCPPGWGHLDATSAGEKAPSPWGSIRTGAQAAHVWTPAAGSCSVSCGRGLMELRFLCMDSALRVPVQEELCGLASKPGSRREVCQAVPCPARWQYKLAACSVSCGRGVVRRILYCARAHGEDDGEEILLDTQCQGLPRPEPQEACSLEPCPPRWKVMSLGPCSASCGLGTARRSVACVQLDQGQDVEVDEAACAALVRPEASVPCLIADCTYRWHVGTWMECSVSCGDGIQRRRDTCLGPQAQAPVPADFCQHLPKPVTVRGCWAGPCVGQGTPSLVPHEEAAAPGRTTATPAGASLEWSQARGLLFSPAPQPRRLLKGPQENSVQSSACGRQHLEPTGTIDMRGPGQADCAVAIGRPLGEVVTLRVLESSLNCSAGDMLLLWGRLTWRKMCRKLLDMTFSSKTNTLVVRQRCGRPGGGVLLRYGSQLAPETFYRECDMQLFGPWGEIVSPSLSPATSNAGGCRLFINVAPHARIAIHALATNMGAGTEGANASYILIRDTHSLRTTAFHGQQVLYWESESSQAEMEFSEGFLKAQASLRGQYWTLQSWVPEMQDPQSWKGKEGTSRGPFEQKLISEEDLNMHTGHHHHHH
B4: ADAMTS13 A1146I variant (Exemplified A1146I variant) (protein)
chain: AAGGILHLELLVAVGPDVFQAHQEDTERYVLTNLNIGAELLRDPSLGAQFRVHLVKMVILTEPEGAPNITANLTSSLLSVCGWSQTINPEDDTDPGHADLVLYITRFDLELPDGNRQVRGVTQLGGACSPTWSCLITEDTGFDLGVTIAHEIGHSFGLEHDGAPGSGCGPSGHVMASDGAAPRAGLAWSPCSRRQLLSLLSAGRARCVWDPPRPQPGSAGHPPDAQPGLYYSANEQCRVAFGPKAVACTFAREHLDMCQALSCHTDPLDQSSCSRLLVPLLDGTECGVEKWCSKGRCRSLVELTPIAAVHGRWSSWGPRSPCSRSCGGGVVTRRRQCNNPRPAFGGRACVGADLQAEMCNTQACEKTQLEFMSQQCARTDGQPLRSSPGGASFYHWGAAVPHSQGDALCRHMCRAIGESFIMKRGDSFLDGTRCMPSGPREDGTLSLCVSGSCRTFGCDGRMDSQQVWDRCQVCGGDNSTCSPRKGSFTAGRAREYVTFLTVTPNLTSVYIANHRPLFTHLAVRIGGRYVVAGKMSISPNTTYPSLLEDGRVEYRVALTEDRLPRLEEIRIWGPLQEDADIQVYRRYGEEYGNLTRPDITFTYFQPKPRQAWVWAAVRGPCSVSCGAGLRWVNYSCLDQARKELVETVQCQGSQQPPAWPEACVLEPCPPYWAVGDFGPCSASCGGGLRERPVRCVEAQGSLLKTLPPARCRAGAQQPAVALETCNPQPCPARWEVSEPSSCTSAGGAGLALENETCVPGADGLEAPVTEGPGSVDEKLPAPEPCVGMSCPPGWGHLDATSAGEKAPSPWGSIRTGAQAAHVWTPAAGSCSVSCGRGLMELRFLCMDSALRVPVQEELCGLASKPGSRREVCQAVPCPARWQYKLAACSVSCGRGVVRRILYCARAHGEDDGEEILLDTQCQGLPRPEPQEACSLEPCPPRWKVMSLGPCSASCGLGTARRSVACVQLDQGQDVEVDEAACAALVRPEASVPCLIADCTYRWHVGTWMECSVSCGDGIQRRRDTCLGPQAQAPVPADFCQHLPKPVTVRGCWAGPCVGQGTPSLVPHEEAAIPGRTTATPAGASLEWSQARGLLFSPAPQPRRLLPGPQENSVQSSACGRQHLEPTGTIDMRGPGQADCAVAIGRPLGEVVTLRVLESSLNCSAGDMLLLWGRLTWRKMCRKLLDMTFSSKTNTLVVRQRCGRPGGGVLLRYGSQLAPETFYRECDMQLFGPWGEIVSPSLSPATSNAGGCRLFINVAPHARIAIHALATNMGAGTEGANASYILIRDTHSLRTTAFHGQQVLYWESESSQAEMEFSEGFLKAQASLRGQYWTLQSWVPEMQDPQSWKGKEGTSRGPFEQKLISEEDLNMHTGHHHHHH

Target: T1, FRETS-VWF73 substrate (VWF fragment …)

Row | Protein | proteolytic activity, FRETS-VWF73 assay | proteolytic activity, FRETS-VWF73 assay, fold increase
1 | B1 | induces a similar constitutive activity to that seen with the A1144V, A1146V variants | 
2 | B2 |  | Induces greater than 10-fold increase in activity
3 | B3 |  | Induces greater than 10-fold increase in activity
4 | B4 | induces a similar constitutive activity to that seen with the A1144V, A1146V variants | 
